Source: US20250282887A1 (Amgen, published 2025)

Assays:
[1] = target: T1, Human MAGEB2 (Melanoma-associated antigen B2) (human, UniProt O15479 1-319); assay: IHC on FFPE U266B1 cells (endogenous MAGEB2)
T1 construct: Intracellular antigen detected by IHC in FFPE material: CHO cells transfected with human MAGEB2 (mCherry vector with Myc/DDK tags, or ORF without tags)
T1 sequence: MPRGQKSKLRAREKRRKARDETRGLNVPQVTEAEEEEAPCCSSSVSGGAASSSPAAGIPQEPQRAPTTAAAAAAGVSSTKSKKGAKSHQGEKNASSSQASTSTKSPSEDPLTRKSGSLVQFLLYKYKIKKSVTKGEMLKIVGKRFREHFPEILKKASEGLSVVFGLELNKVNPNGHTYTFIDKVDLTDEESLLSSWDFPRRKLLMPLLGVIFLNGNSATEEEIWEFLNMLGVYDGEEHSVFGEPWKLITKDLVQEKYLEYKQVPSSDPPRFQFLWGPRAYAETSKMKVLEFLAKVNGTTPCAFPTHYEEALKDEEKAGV
Protocol: (§1) FFPE samples were sectioned at 4 μm and mounted on positive charged glass slides. After mounting, paraffin sections were air-dried at room temperature. FFPE TMA samples were received as freshly sectioned and mounted on glass slides. The fully automated IHC assay was performed on a Discovery Ultra Stainer (Ventana Medical Systems, Tucson, AZ) using Ventana Anti-Rabbit HQ (cat #760-4815), Ventana Anti-HQ HRP (cat #760-4820), and Ventana Antibody Diluent with Casein (cat #760-219) (Ventana Medical Systems, Tucson, AZ). The slides were baked on the Discovery Ultra Stainer at 60° C. for 8 minutes, de-paraffinized with Ventana Discovery wash (cat #950-510) for 3 cycles (8 minutes each) at 69° C., and underwent cell conditioning (target retrieval) at 95° C. for 16 minutes (for cell arrays) or 32 minutes (tissues or TMAs) in CC1 buffer (cat #950-500). Following this, slides were incubated with Background Sniper (cat #BS966M, Biocare Medical, Pacheco, CA) in a Ventana Option Prep kit (cat #771-751) for 28 minutes, incubated with CM inhibitor (a part of the Ventana DAB kit cat #760-159) for 12 minutes, and incubated for 1 h at RT with MAGE-B2 antibody diluted with Ventana diluent with Casein in a Ventana Prep kit (cat #770-001) (working concentration at 0.1 μg/ml for cell pellet, or 1-5 ug/ml for tissues) or with a matched concentration of isotype control Rabbit IgG1 antibody. Following this, slides were incubated with the Ventana Anti-Rabbit HQ (cat #760-4815) for 28 minutes at RT, Ventana Anti-HQ HRP (cat #760-4820) for 28 minutes at RT, and signals detected with Ventana DAB chromogen kit (cat #760-159) for 5 minutes at RT. Slides were counterstained with Ventana Hematoxylin II (cat #5266726001) for 8 minutes and Ventana Bluing reagent (cat #526676900) for 4 minutes. Slides were coverslipped and digitized using an Aperio AT2 scanner (Leica Biosystems Inc, Buffalo Grove, IL).

[2] = target: T1, Human MAGEB2 (Melanoma-associated …); assay: IHC on FFPE NCI-H1395 cells (endogenous MAGEB2)
Protocol: as §1

[3] = target: T2, human MAGEA2 (human, UniProt P43356 1-314); assay: IHC, FFPE CHO cells transfected with human MAGEA2
T2 construct: whole, on cells; FFPE cell pellets
T2 sequence (P43356 whole entry): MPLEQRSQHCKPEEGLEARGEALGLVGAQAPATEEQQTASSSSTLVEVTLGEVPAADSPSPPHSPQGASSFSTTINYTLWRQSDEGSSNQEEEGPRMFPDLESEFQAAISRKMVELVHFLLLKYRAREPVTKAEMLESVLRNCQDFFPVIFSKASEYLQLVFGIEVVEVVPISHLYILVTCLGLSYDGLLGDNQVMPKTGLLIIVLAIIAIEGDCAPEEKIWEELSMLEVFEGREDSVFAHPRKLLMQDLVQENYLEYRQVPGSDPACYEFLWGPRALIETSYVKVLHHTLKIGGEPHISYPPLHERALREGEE
Protocol: as §1

[4] = target: T3, human MAGEA8 (human, UniProt P43361 1-318); assay: IHC, FFPE CHO cells transfected with human MAGEA8
T3 construct: whole, on cells; FFPE cell pellets
T3 sequence (looked up): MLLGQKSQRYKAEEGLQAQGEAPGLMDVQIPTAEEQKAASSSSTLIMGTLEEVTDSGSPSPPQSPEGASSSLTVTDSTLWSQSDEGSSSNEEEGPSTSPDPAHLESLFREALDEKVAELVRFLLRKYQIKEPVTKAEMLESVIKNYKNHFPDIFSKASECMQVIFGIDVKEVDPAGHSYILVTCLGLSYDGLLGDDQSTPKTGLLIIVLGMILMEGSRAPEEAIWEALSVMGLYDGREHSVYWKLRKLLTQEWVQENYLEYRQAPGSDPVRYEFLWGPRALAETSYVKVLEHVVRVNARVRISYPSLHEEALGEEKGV
Excerpt: Negative control cells included parental Chinese hamster ovary (CHO) cells, CHO cells stably transfected with mCherry Vector Control (minus Myc/DDK tags), CHO cells stably transfected with mCherry-human DCAF4L2 (plus Myc/DDK tags). The cross-reactivity control cells included CHO cells transfected with mCherry Vector Control (plus Myc/DDK tags) with one of the human MAGE-B or MAGE-A family members (MAGEA1, MAGEA2, MAGEA3, MAGEA4, MAGEA5, MAGEA6, MAGEA8, MAGEA9, MAGEA11, MAGEA12, MAGEB1, MAGEB3, MAGEB4, MAGEB5, MAGEB6, MAGEB10, MAGEB16, MAGEB17, MAGEB18). Positive control cell lines included CHO cells transfected with mCherry Vector (plus Myc/DDK tags) with human MAGE-B2 or CHO cells transfected with mCherry Vector (open reading frame (ORF); minus Myc/DDK tags) with human MAGEB2, and thirteen human cancer cell lines with known endogenous RNA expression level of MAGEB2 (U266B1, T98G, KMM-1, U20S, CFPAC-1, SCaBER, UACC-257, CFPAC-1, VMRC-LCD, NCI-H1703, UM-UC-3, NCI-H1395, NCIH82).
as §1, with “antibody.” for “antibody. Following this, slides were incubated with the Ventana Anti-Rabbit HQ (cat #760-4815) for 28 minutes at RT, Ventana Anti-HQ HRP (cat #760-4820) for 28 minutes at RT, and signals detected with Ventana DAB chromogen kit (cat #760-159) for 5 minutes at RT. Slides were counterstained with Ventana Hematoxylin II (cat #5266726001) for 8 minutes and Ventana Bluing reagent (cat #526676900) for 4 minutes. Slides were coverslipped and digitized using an Aperio AT2 scanner (Leica Biosystems Inc, Buffalo Grove, IL).”

B1: 1I14 (antibody, V domains shown)
VH: QSVEESGGRLVTPGTPLTLTCTISGFSLSSYAMSWVRQAPGKGLEWIGSIGGGGSAVYASWAKGRFTISKTSTTVDLRITSPTTEDTAMYFCGRGFYSIDLWGPGTLVTVSS
VL: DVVMTQTPASVEATVGGTVTIKCQSSQSVYDNNALAWYQQNAGQRPRLLIYGASTLASGVPSRFSASGSGTEFTLTISDLECADAATYYCQCTYYVSSYQNDFGGGTEVVVKG
notes: also called MAGE-B2 (1i14)
[1]
  IHC % Frequency: 90%
  IHC Intensity: 3
[2]
  IHC % Frequency: 0%
  IHC Intensity: 0
[3]
  binding result: no binding (tested: 0.1 µg/ml)
[4]
  binding result: no binding (tested: 0.1 µg/ml)

B2: 1C3 (antibody, V domains shown)
VH: QSLEESGGGLVQPEGSLTLTCTAFGVTLTNYYICWVRQAPGKGLEWVGCIDNANGRTYYASWAKGRFTISKTSSTTGTLQMTSLTAADTATYFCARSLATPLWGPGTLVTVSS
VL: DIVMTQTPSSVEAAVGGTVTIKCQASQNISSYLAWYQQKPGQPPKLLIYRASTLASGVPSRFKGSGSGTQFTLTISDLECADAATYYCQSYDDSRSSNFFYAFGGGTEVVVKG
notes: also called MAGE-B2 (IC3); anti-MAGEB2 antibody 1C3
[1]
  IHC % Frequency: 90%
  IHC Intensity: 2
[2]
  IHC % Frequency: 0%
  IHC Intensity: 0
[3]
  binding result: no binding (tested: 0.1 µg/ml)
[4]
  binding result: no binding (tested: 0.1 µg/ml)

B3: 4G17 (antibody, IgG1, V domains shown)
VH: QSLEESGGGLVQPEGSLTLTCTASGVTLSNYYICWVRQAPGKGLEWIGCIDNVNGRTYYASWAKGRFTISKTSSTTGTLQMTSLTAADTATYFCARSLATPLWGPGTLVTVSS
VL: DIVMTQTPASVEAAVGGTVTIKCQASQNIDSYLAWYQQKPGQPPKLLIYRASTLASGVPSRFKGSGSGTEFTLTISDLECADAATYYCQSYDDSRSSSFFYGFGGGTEVVVK
notes: Rabbit monoclonal IgG1; Tested as supernatant and as small batch purified antibody; also called MAGE-B2 (4G17); anti-MAGEB2 antibody 4G17
[1]
  IHC % Frequency: 80%
  IHC Intensity: 2
[2]
  IHC % Frequency: 0%
  IHC Intensity: 0
[3]
  binding result: no binding (tested: 0.1 µg/ml)
[4]
  binding result: no binding (tested: 0.1 µg/ml)

B4: 1J15 (antibody, IgG1, V domains shown)
VH: QSLEESGGGLVQPEGSLTLTCTAFGFTLNNYYICWVRQAPGKGLEWIACIDNANGRTYYASWAKGRFTISKTSSTTVTLQMTSLTAADTATYFCARSLSTPLWGPGTLVTVSS
VL: DIVMTQTPASVEAAVGGTVTIKCQASQSISSYLSWYQQKPGQPPKLLIYRASTLASGVPSRFRGSGSGTQFTLTISDLECADAATYYCQSYDDSSDNNFFYGFGGGTEVVVR
notes: Rabbit monoclonal IgG1; Tested as supernatant and as small batch purified antibody; also called MAGE-B2 (IJ15); anti-MAGEB2 antibody 1J15
[1]
  IHC % Frequency: 90%
  IHC Intensity: 1
[2]
  IHC % Frequency: 0%
  IHC Intensity: 0
[3]
  binding result: no binding (tested: 0.1 µg/ml)
[4]
  binding result: no binding (tested: 0.1 µg/ml)
